From patent US20200317768A1 (published 2020)

T1: human FcγRIIaH extracellular domain, C-terminal His-tag (human, UniProt P12318 34-217)
T1 construct: also called human FcγRIIa (type H); FcgRIIaH; not shown: His-tag added to the C-terminus
T1 sequence: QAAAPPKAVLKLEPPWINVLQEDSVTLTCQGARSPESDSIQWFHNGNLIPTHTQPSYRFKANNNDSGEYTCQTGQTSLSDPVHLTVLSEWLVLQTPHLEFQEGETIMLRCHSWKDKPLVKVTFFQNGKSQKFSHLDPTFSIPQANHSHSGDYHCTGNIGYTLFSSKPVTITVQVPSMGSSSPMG

T2: human FcγRIIaR extracellular domain, C-terminal His-tag (human, UniProt P12318 34-217)
T2 construct: also called human FcγRIIa (type R); FcgRIIaR; not shown: His-tag added to the C-terminus
T2 chain: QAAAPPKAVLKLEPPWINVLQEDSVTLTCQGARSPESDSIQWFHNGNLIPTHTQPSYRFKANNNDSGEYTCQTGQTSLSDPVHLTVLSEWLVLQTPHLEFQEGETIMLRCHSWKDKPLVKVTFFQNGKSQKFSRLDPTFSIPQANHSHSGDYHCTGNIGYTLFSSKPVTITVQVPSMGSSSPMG

T3: human FcγRIIb extracellular domain, C-terminal His-tag (human, UniProt P31994 43-217)
T3 construct: also called FcgRIIb; not shown: His-tag added to the C-terminus
T3 sequence: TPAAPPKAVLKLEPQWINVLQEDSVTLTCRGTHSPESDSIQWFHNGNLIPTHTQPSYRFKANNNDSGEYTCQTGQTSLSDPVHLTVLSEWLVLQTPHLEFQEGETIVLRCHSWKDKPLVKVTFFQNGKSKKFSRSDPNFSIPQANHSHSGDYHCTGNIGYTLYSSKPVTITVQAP


Assays:
[1] = target: T1, human FcγRIIaH extracellular domain, …; experiment: SPR; KD of SG1 divided by KD of variant;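 also: relative to parent M103205H795-SG1 carrying the SG1 human heavy chain constant region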
Procedure: (§1) The kinetic analysis of interactions between these antibodies and FcγR was carried out using BIACORE® T200 or BIACORE® 4000 (GE Healthcare). HBS-EP+ (GE Healthcare) was used as the running buffer, and the measurement temperature was set to 25° C. A chip produced by immobilizing Protein A. Protein A/G or mouse anti-human IgG kappa light chain (BD Biosciences) onto a Series S Sensor Chip CM4 or CM5 (GE Healthcare) by the amine-coupling method was used. […] After the measurement, the antibody captured on the chip was washed off by allowing reaction with 10 mM glycine-HCl, pH1.5 and 25 mM NaOH so that the chip was regenerated and used repeatedly. The sensorgrams obtained as measurement results were analyzed by the 1:1 Langmuir binding model using the BIACORE® Evaluation Software to calculate the binding rate constant ka (L/mol/s) and dissociation rate constant kd (l/s), and the dissociation constant KD (mol/L) was calculated from these values. […] Regarding such interactions, KD values were calculated using the following 1:1 binding model described in BIACORE® T100 Software Handbook BR1006-48 Edition AE.
(§2) Human FcγRIIb-enhanced Fc variants with anti-myostatin variable region were constructed and their affinity for human FcγRs was evaluated. […] In addition, substitutions (Q311R/D413K or […]) were also introduced. The variants were expressed using M103202L1045-SK1 as light chain and their affinity to human FcγRs was analyzed according to the method shown in Example 34.

[2] = target: T2, human FcγRIIaR extracellular domain, …; experiment: SPR; KD of SG1 divided by KD of variant;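 also: relative to parent M103205H795-SG1 carrying the SG1 human heavy chain constant region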
Procedure: as §1, §2

[3] = target: T3, human FcγRIIb extracellular domain, …; experiment: SPR; KD of SG1 divided by KD of variant;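 also: relative to parent M103205H795-SG1 carrying the SG1 human heavy chain constant region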
Procedure: as §1, §2

[4] = target: T4, human FcγRIIIaV extracellular domain, C-terminal His-tag (human, UniProt P08637 17-208); experiment: SPR; KD of SG1 divided by KD of variant;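 also: relative to parent M103205H795-SG1 carrying the SG1 human heavy chain constant region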
T4 construct: also called FcgRIIIaV; not shown: His-tag added to the C-terminus
Procedure: as §1, §2

[5] = target: T1, human FcγRIIaH extracellular domain, …; experiment: SPR (BIACORE), antibody captured, soluble FcgR as analyte, 25C
Procedure: as §1, §2

[6] = target: T2, human FcγRIIaR extracellular domain, …; experiment: as above
Procedure: as §1, §2

[7] = target: T3, human FcγRIIb extracellular domain, …; experiment: as above
Procedure: as §1, §2

[8] = target: T4, human FcγRIIIaV extracellular domain, …; experiment: as above
Procedure: as §1, §2

T4 sequence (P08637 17-208 F176V): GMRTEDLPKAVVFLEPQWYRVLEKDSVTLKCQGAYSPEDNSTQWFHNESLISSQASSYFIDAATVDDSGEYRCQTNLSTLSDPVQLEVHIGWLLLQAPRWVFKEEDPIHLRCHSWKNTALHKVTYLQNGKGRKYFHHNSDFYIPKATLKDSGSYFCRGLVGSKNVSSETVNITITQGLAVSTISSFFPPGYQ

Binder	KD fold (SG1 = 1) [1] [fold]	KD fold (SG1 = 1) [2] [fold]	KD fold (SG1 = 1) [3] [fold]	KD fold (SG1 = 1) [4] [fold]	Kd [5] [µM]	Kd [6] [µM]	Kd [7] [µM]	Kd [8] [µM]
MS103240H795-TT24/M103202L1045-SK1 (antibody, human IgG1, kappa, CH = SG1 with P238D/T250V/S267A/T307P/Q311R/A330K/P343R (EU numbering)) heavy: QVQLVESGGGLVQPGGSLRLSCAVSGIDLSHDDISWVRQAPGKGLEWVSIISYAGSTYYASWAKGRLTISKDTSKNQVVLTMTNMDPVDTATYYCARGVPAYSHGGDLWGQGTLVTVSSASTKGPSVFPLAPSSKSTSGGTAALGCLVKDYFPEPVTVSWNSGALTSGVHTFPAVLQSSGLYSLSSVVTVPSSSLGTQTYICNVNHKPSNTKVDKKVEPKSCDKTHTCPPCPAPELLGGDSVFLFPPKPKDVLMISRTPEVTCVVVDVAHEDPEVKFNWYVDGVEVHNAKTKPREEQYNSTYRVVSVLPVLHRDWLNGKEYKCKVSNKALPKPIEKTISKAKGQRREPQVYTLPPSREEMTKNQVSLTCLVKGFYPSDIAVEWESNGQPENNYKTTPPVLDSDGSFFLYSKLTVDKSRWQQGNVFSCSVMHEALHNHYTQKSLSLSP light: DIVMTQSPATLSLSPGERATLSCTTSQSVYHENWLSWFQQKPGQPPKLLIYWASTLAYGVPSRFSGSGSGTDFTLTISSLQPEDAATYYCAGGYGGGRYAFGQGTKVEIKRTVAAPSVFIFPPSDEQLKSGTASVVCLLNNFYPREAKVQWKVDNALQSGNSQESVTEQDSKDSTYSLSSTLTLSKADYEKHKVYACEVTHQGLSSPVTKSFNRGEC	0.015	0.08	4.8	0.003	49	13	1.2	260
MS103240H795-TT25/M103202L1045-SK1 (antibody, human IgG1, kappa, CH = SG1 with P238D/T250V/S267A/T307P/Q311R/A330K/D413K (EU numbering)) heavy: QVQLVESGGGLVQPGGSLRLSCAVSGIDLSHDDISWVRQAPGKGLEWVSIISYAGSTYYASWAKGRLTISKDTSKNQVVLTMTNMDPVDTATYYCARGVPAYSHGGDLWGQGTLVTVSSASTKGPSVFPLAPSSKSTSGGTAALGCLVKDYFPEPVTVSWNSGALTSGVHTFPAVLQSSGLYSLSSVVTVPSSSLGTQTYICNVNHKPSNTKVDKKVEPKSCDKTHTCPPCPAPELLGGDSVFLFPPKPKDVLMISRTPEVTCVVVDVAHEDPEVKFNWYVDGVEVHNAKTKPREEQYNSTYRVVSVLPVLHRDWLNGKEYKCKVSNKALPKPIEKTISKAKGQPREPQVYTLPPSREEMTKNQVSLTCLVKGFYPSDIAVEWESNGQPENNYKTTPPVLDSDGSFFLYSKLTVKKSRWQQGNVFSCSVMHEALHNHYTQKSLSLSP light: DIVMTQSPATLSLSPGERATLSCTTSQSVYHENWLSWFQQKPGQPPKLLIYWASTLAYGVPSRFSGSGSGTDFTLTISSLQPEDAATYYCAGGYGGGRYAFGQGTKVEIKRTVAAPSVFIFPPSDEQLKSGTASVVCLLNNFYPREAKVQWKVDNALQSGNSQESVTEQDSKDSTYSLSSTLTLSKADYEKHKVYACEVTHQGLSSPVTKSFNRGEC	0.034	0.08	5.8	0.006	22	13	1	140
MS103240H795-TT26/M103202L1045-SK1 (antibody, human IgG1, kappa, CH = SG1 with L234Y/P238D/T250V/T307P/Q311R/A330K/P343R (EU numbering)) heavy: QVQLVESGGGLVQPGGSLRLSCAVSGIDLSHDDISWVRQAPGKGLEWVSIISYAGSTYYASWAKGRLTISKDTSKNQVVLTMTNMDPVDTATYYCARGVPAYSHGGDLWGQGTLVTVSSASTKGPSVFPLAPSSKSTSGGTAALGCLVKDYFPEPVTVSWNSGALTSGVHTFPAVLQSSGLYSLSSVVTVPSSSLGTQTYICNVNHKPSNTKVDKKVEPKSCDKTHTCPPCPAPEYLGGDSVFLFPPKPKDVLMISRTPEVTCVVVDVSHEDPEVKFNWYVDGVEVHNAKTKPREEQYNSTYRVVSVLPVLHRDWLNGKEYKCKVSNKALPKPIEKTISKAKGQRREPQVYTLPPSREEMTKNQVSLTCLVKGFYPSDIAVEWESNGQPENNYKTTPPVLDSDGSFFLYSKLTVDKSRWQQGNVFSCSVMHEALHNHYTQKSLSLSP light: DIVMTQSPATLSLSPGERATLSCTTSQSVYHENWLSWFQQKPGQPPKLLIYWASTLAYGVPSRFSGSGSGTDFTLTISSLQPEDAATYYCAGGYGGGRYAFGQGTKVEIKRTVAAPSVFIFPPSDEQLKSGTASVVCLLNNFYPREAKVQWKVDNALQSGNSQESVTEQDSKDSTYSLSSTLTLSKADYEKHKVYACEVTHQGLSSPVTKSFNRGEC	0.011	0.05	5.3	0.004	69	21	1.1	200
MS103240H795-TT27/M103202L1045-SK1 (antibody, human IgG1, kappa, CH = SG1 with L234Y/P238D/T250V/T307P/Q311R/A330K/D413K (EU numbering)) heavy: QVQLVESGGGLVQPGGSLRLSCAVSGIDLSHDDISWVRQAPGKGLEWVSIISYAGSTYYASWAKGRLTISKDTSKNQVVLTMTNMDPVDTATYYCARGVPAYSHGGDLWGQGTLVTVSSASTKGPSVFPLAPSSKSTSGGTAALGCLVKDYFPEPVTVSWNSGALTSGVHTFPAVLQSSGLYSLSSVVTVPSSSLGTQTYICNVNHKPSNTKVDKKVEPKSCDKTHTCPPCPAPEYLGGDSVFLFPPKPKDVLMISRTPEVTCVVVDVSHEDPEVKFNWYVDGVEVHNAKTKPREEQYNSTYRVVSVLPVLHRDWLNGKEYKCKVSNKALPKPIEKTISKAKGQPREPQVYTLPPSREEMTKNQVSLTCLVKGFYPSDIAVEWESNGQPENNYKTTPPVLDSDGSFFLYSKLTVKKSRWQQGNVFSCSVMHEALHNHYTQKSLSLSP light: DIVMTQSPATLSLSPGERATLSCTTSQSVYHENWLSWFQQKPGQPPKLLIYWASTLAYGVPSRFSGSGSGTDFTLTISSLQPEDAATYYCAGGYGGGRYAFGQGTKVEIKRTVAAPSVFIFPPSDEQLKSGTASVVCLLNNFYPREAKVQWKVDNALQSGNSQESVTEQDSKDSTYSLSSTLTLSKADYEKHKVYACEVTHQGLSSPVTKSFNRGEC	0.014	0.08	7.1	0.006	52	14	0.82	130
MS103240H795-TT28/M103202L1045-SK1 (antibody, human IgG1, kappa, CH = SG1 with L234Y/P238D/T250V/S267A/T307P/Q311R/A330K/P343R (EU numbering)) heavy: QVQLVESGGGLVQPGGSLRLSCAVSGIDLSHDDISWVRQAPGKGLEWVSIISYAGSTYYASWAKGRLTISKDTSKNQVVLTMTNMDPVDTATYYCARGVPAYSHGGDLWGQGTLVTVSSASTKGPSVFPLAPSSKSTSGGTAALGCLVKDYFPEPVTVSWNSGALTSGVHTFPAVLQSSGLYSLSSVVTVPSSSLGTQTYICNVNHKPSNTKVDKKVEPKSCDKTHTCPPCPAPEYLGGDSVFLFPPKPKDVLMISRTPEVTCVVVDVAHEDPEVKFNWYVDGVEVHNAKTKPREEQYNSTYRVVSVLPVLHRDWLNGKEYKCKVSNKALPKPIEKTISKAKGQRREPQVYTLPPSREEMTKNQVSLTCLVKGFYPSDIAVEWESNGQPENNYKTTPPVLDSDGSFFLYSKLTVDKSRWQQGNVFSCSVMHEALHNHYTQKSLSLSP light: DIVMTQSPATLSLSPGERATLSCTTSQSVYHENWLSWFQQKPGQPPKLLIYWASTLAYGVPSRFSGSGSGTDFTLTISSLQPEDAATYYCAGGYGGGRYAFGQGTKVEIKRTVAAPSVFIFPPSDEQLKSGTASVVCLLNNFYPREAKVQWKVDNALQSGNSQESVTEQDSKDSTYSLSSTLTLSKADYEKHKVYACEVTHQGLSSPVTKSFNRGEC	0.016	0.14	6.8	0.01	48	7.7	0.85	82
